Target: the molecule itself
Experiment: cryo-EM structure; full-length AE1 from DSP-cross-linked human erythrocyte ghost membranes in MSP-1E3D1/POPC nanodiscs; dimer configurations IF1/OF, OF/OF and IF1/IF2 separated by 3D classification

B1: Anion Exchanger 1 (AE1) (natural protein, human, UniProt P02730 1-911, looked up)
chain: MEELQDDYEDMMEENLEQEEYEDPDIPESQMEEPAAHDTEATATDYHTTSHPGTHKVYVELQELVMDEKNQELRWMEAARWVQLEENLGENGAWGRPHLSHLTFWSLLELRRVFTKGTVLLDLQETSLAGVANQLLDRFIFEDQIRPQDREELLRALLLKHSHAGELEALGGVKPAVLTRSGDPSQPLLPQHSSLETQLFCEQGDGGTEGHSPSGILEKIPPDSEATLVLVGRADFLEQPVLGFVRLQEAAELEAVELPVPIRFLFVLLGPEAPHIDYTQLGRAAATLMSERVFRIDAYMAQSRGELLHSLEGFLDCSLVLPPTDAPSEQALLSLVPVQRELLRRRYQSSPAKPDSSFYKGLDLNGGPDDPLQQTGQLFGGLVRDIRRRYPYYLSDITDAFSPQVLAAVIFIYFAALSPAITFGGLLGEKTRNQMGVSELLISTAVQGILFALLGAQPLLVVGFSGPLLVFEEAFFSFCETNGLEYIVGRVWIGFWLILLVVLVVAFEGSFLVRFISRYTQEIFSFLISLIFIYETFSKLIKIFQDHPLQKTYNYNVLMVPKPQGPLPNTALLSLVLMAGTFFFAMMLRKFKNSSYFPGKLRRVIGDFGVPISILIMVLVDFFIQDTYTQKLSVPDGFKVSNSSARGWVIHPLGLRSEFPIWMMFASALPALLVFILIFLESQITTLIVSKPERKMVKGSGFHLDLLLVVGMGGVAALFGMPWLSATTVRSVTHANALTVMGKASTPGAAAQIQEVKEQRISGLLVAVLVGLSILMEPILSRIPLAVLFGIFLYMGVTSLSGIQLFDRILLLFKPPKYHPDVPYVKRVKTWRMHLFTGIQIICLAVLWVVKSTPASLALPFVLILTVPLRRVLLPLIFRNVELQCLDADDAKATFDEEEGRDEYDEVAMPV
modifications: N-linked glycosylation at N642; lysines cross-linked with DSP (K539 and K851)
notes: Anion exchanger 1 (band 3), human, 911 residues: cytosolic domain 1-347, linker 348-370, transmembrane domain 371-911; the full-length protein was purified, only the transmembrane domain was resolved in the maps; Native protein from red blood cells; held in lipid nanodiscs (MSP-1E3D1, POPC) with PIP2 and POPC lipids at the dimer interface; also called band 3; SLC4A1
- stoichiometry N: 2

From PMC12748791 (Nature Communications, 2025)
